This is an account of results in patent publication US20260275319A1, “ARCHAEAL PEPTIDE RECOMBINASE – A NOVEL PEPTIDE LIGATING ENZYME” (MAX-PLANCK-GESELLSCHAFT ZUR FÖRDERUNG DER WISSENSCHAFTEN …, priority 2019, published 2026).

Values joined by “and” are separate entries in the source; they are usually repeats but may differ in a detail not shown here. Equal entries are not always repeated. Where two headings read alike, the source gives them in different places.

Data set [1] addresses M. jannaschii MtrA^Δ194-245 (Methanocaldococcus jannaschii, UniProt Q58261). Conditions: 1:1 molar mixture, 200 μM, Superdex S200, light scattering.
Procedure: Data analysis was carried out with ASTRA v7.3.0.18 software (Wyatt).
For this purpose, size exclusion chromatography using 50 μl 200 μM M. jannaschii Adriase^ΔOB (SEQ ID NO: 132), M. jannaschii MtrA^Δ194-245 (SEQ ID NO:420) or a 1:1 molar mixture of the Adriase-MtrA pair was analyzed using a Superdex S200 10/300 GL gel size-exclusion column (20 mM HEPES-NaOH pH 7.5, 50 mM NaCl, 100 mM KCl) coupled to a miniDAWN Tristar Laser photometer (Wyatt).
To investigate, whether the OB fold alone is sufficient to bind Adriase in the above experimental set-up, we repeated the same analysis using M. jannaschii Adriase^ΔNTN (SEQ ID NO: 519). Specifically, size exclusion chromatography using 50 μl 200 μM M. jannaschii Adriase^ΔNTN (SEQ ID NO: 519), M. jannaschii MtrA^Δ194-245 (SEQ ID NO:420) or a 1:1 molar mixture of the Adriase-MtrA pair was analyzed using a Superdex S200 10/300 GL gel size-exclusion column (20 mM HEPES-NaOH pH 7.5, 50 mM NaCl, 100 mM KCl) coupled to a miniDAWN Tristar Laser photometer (Wyatt).
Data set [2] has as its system (15)KDPGA(10) and PGA(10F) substrates. As to conditions: 100 nM enzyme, 15 μM substrates, 8 min, 85° C. (M. jannaschii variants) or 50° C. (M. mazei).
Procedure: In a second set of experiments, the ligase activity of Adriase variants was tested with (15)KDPGA(10)(SEQ ID NO: 419) and PGA(10F)(SEQ ID NO:414) substrates. […] Furthermore, M. mazei Adriase (SEQ ID NO: 380) was tested for ligase activity with the same M. jannaschii peptide substrates to assess whether variety within the recognition motif is tolerated. The read out for Adriase activity was the detection of fluorescently labeled ligation product (10)KDPGA(10F)(SEQ ID NO: 418).
The reaction was performed in optimized M. jannaschii Adriase buffer (20 mM MES-NaOH pH 5.8, 150 mM NaCl, 100 mM KCl, 5 mM TCEP-HCl) for 8 min at 85° C. when M. jannaschii derived Adriase variants were used and at 50° C. in optimized M. mazei Adriase buffer (50 mM acetic acid, 50 mM MES, 50 mM HEPES, 100 mM NaCl, 50 mM KCl, 5 mM TCEP, pH 7.0) when M. mazei Adriase was used and stopped by addition of 2% SDS. Samples were then separated on 12% polyacrylamide gels (Thermo) and fluorescent products visualized by UV light.
Data set [3] deals with (5)KDPGA(10F) and PGA(10) substrates. In words: M. mazei Adriase peptide-peptide ligation time courses and Michaelis-Menten plot. It counts as biochemical. As to conditions: 50° C. An excerpt: The band intensity of the respective fluorescently labeled PGA(10F) peptides (SEQ ID NO: 455), which were released by the ligation reactions were quantified using ImageJ v1.50i and subtracted from background signal in control reactions without PGA(10) peptides.

Data set [4] has as its system Ub-(5)KDPGA(15) and PGA(15)-Ub. In words: Comparison with Sortase: Adriase-catalyzed protein-protein ligation.
Procedure: (§1) (SEQ ID NO: 536) and GGG-Ub (SEQ ID NO: 666) were recorded. The Adriase assays were conducted with 3.13 μM and 100 μM substrate concentration and 0.0025 molar equivalents Adriase (SEQ ID NO: 380) in reaction buffer (50 mM acetic acid, 50 mM MES, 50 mM HEPES, 100 mM NaCl, 50 mM KCl, 5 mM TCEP, pH 7.0) at 50° C. The SrtA5* and SrtA assays were conducted with 3.13 μM and 100 μM substrate concentration and either 1 or 0.1 molar equivalents SrtA5* or SrtA (SEQ ID NO: 535 and 662) in Sortase buffer (50 mM Tris-HCl pH 7.5, 150 mM NaCl, 10 mM CaCl2) at 37° C. At various time points (0 s, 28 s, 55 s, 88 s, 126 s, 171 s, 225 s, 295 s, 393 s, 554 s, 1125 s, 1670 s and 2250 s), an aliquot of the reaction was mixed with 2% SDS. Samples were then separated on 12% polyacrylamide gels (Thermo) and stained with Coomassie blue. The band intensities of educt and product bands were quantified using ImageJ v1.52a, assuming that all ubiquitin molecules bind the coomassie dye in a similar manner. The results were used to plot the time courses for each experiment.
The test system of data set [5] is Ub-(5)KDPGA(15)-Strep and PGA(10). In words: Test for hydrolase activity with protein substrate.
Procedure: To investigate, whether this characteristic also holds true with protein substrates, the above experiment was repeated with Ub-(5)KDPGA(15)-Strep substrate (SEQ ID NO: 522). Specifically, 25 μM Ub-(5)KDPGA(15)-Strep and 25 μM PGA(10)(SEQ ID NO: 454) were incubated with either 25 nM or 25 μM M. mazei Adriase (SEQ ID NO: 380) in optimized buffer (50 mM acetic acid, 50 mM MES, 50 mM HEPES, 100 mM NaCl, 50 mM KCl, 5 mM TCEP, pH 7.0) at 50° C. After 140 s, 320 s, 575 s, 1002 s, 30 min or 90 min, aliquots were removed and mixed with 2% SDS to stop the reaction.
Data set [6] has as its system Ub-(5)KDPGA(15) and PGA(15)-Ub substrates. In words: M. mazei Adriase protein-protein ligation kinetics.
Procedure: Specifically, different concentrations (0.39 μM, 0.78 μM, 1.56 μM, 3.13 μM, 6.25 μM, 12.5, 25, 50 or 100 μM; three independent experiments per concentration) of Ub-(5)KDPGA(15)(SEQ ID NO: 520) and PGA(15)-Ub (SEQ ID NO: 521) substrates were incubated with 0.0025 molar equivalents of M. mazei Adriase (SEQ ID NO: 380) in reaction buffer (50 mM acetic acid, 50 mM MES, 50 mM HEPES, 100 mM NaCl, 50 mM KCl, 5 mM TCEP, pH 7.0) at 50° C. At various time points (0 s, 28 s, 55 s, 88 s, 126 s, 171 s, 225 s, 295 s, 393 s, 554 s, 1125 s, 1670 s and 2250 s), an aliquot of the reaction was mixed with 2% SDS. Samples were then separated on 12% polyacrylamide gels (Thermo) and stained with Coomassie blue (FIG. 21A). The band intensities of educt and product bands were quantified using ImageJ v1.52a, assuming that all ubiquitin molecules bind the coomassie dye in a similar manner. The results were used to plot the time courses for each experiment (FIG. 21B).
the data fit for each time course allowed the determination of the maximum rate parameter for each concentration. These maximum rates were then used in a Michaelis-Menten plot (FIG. 21C) to approximate kinetic measures.
The subject of data set [7] is Ub-(5)KDPGA(10) and PGA(10)-sdAb/CyP/GST. Kind of data set: Ligation of unrelated protein substrates (sdAb, CyP, GST). Type of data set: biochemical, M. mazei. Conditions: 0.9 μM enzyme, 3.7 μM substrates, 37° C., 10 min.
For data set [8], the system named is (15)KDPGA(10) and PGA(10F) substrates. Conditions: FIG. 14.
Procedure: Specifically, 15 μM of (15)KDPGA(10)(SEQ ID NO: 419) and 15 μM of fluorophore-coupled PGA(10F)(SEQ ID NO: 374) substrates were incubated optimized M. jannaschii Adriase buffer (20 mM MES-NaOH pH 5.8, 150 mM NaCl, 100 mM KCl, 5 mM TCEP-HCl) for 8 min at 80° C. with either various Adriase concentrations. The assay was performed with either 7 nM, 21 nM, 62 nM, 185 nM, 556 nM, 1666 nM, 5000 nM or 15000 nM N-terminally modified Adriase (N-His, SEQ ID NO: 450) or 0 nM, 7 nM, 21 nM or 62 nM unmodified Adriase (SEQ ID NO: 385) and stopped by addition of 2% SDS. Samples were then separated on 12% polyacrylamide gels (Thermo) and fluorescent products visualized by UV light.
The test system of data set [9] is Ub-GGSLPETGGGHHHHHH and GGG-Ub. Kind of data set: Comparison with Sortase: SrtA / SrtA5* catalyzed protein-protein ligation. As to conditions: 3.13 μM each substrate, enzyme:substrate ratio 1:1, 37° C.
Procedure: as §1
The subject of data set [10] is LPETG (primary) and GGG (secondary) substrates. As to conditions: cited from earlier work.
For data set [11], the target named is LPETG (primary) and GGG (secondary) substrates (Staphylococcus aureus, UniProt Q2FV99). Conditions: Frankel (2005); cited from earlier work.
Chain of LPETG (primary) and GGG (secondary) substrates (Staphylococcus aureus, UniProt Q2FV99) (Q2FV99 60-206): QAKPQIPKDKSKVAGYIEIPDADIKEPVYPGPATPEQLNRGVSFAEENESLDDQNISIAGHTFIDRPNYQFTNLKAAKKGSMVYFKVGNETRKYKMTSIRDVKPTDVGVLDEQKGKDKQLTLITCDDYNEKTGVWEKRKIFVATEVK

Chain of M. jannaschii MtrA^Δ194-245 (Q58261 1-189, stated change not applied): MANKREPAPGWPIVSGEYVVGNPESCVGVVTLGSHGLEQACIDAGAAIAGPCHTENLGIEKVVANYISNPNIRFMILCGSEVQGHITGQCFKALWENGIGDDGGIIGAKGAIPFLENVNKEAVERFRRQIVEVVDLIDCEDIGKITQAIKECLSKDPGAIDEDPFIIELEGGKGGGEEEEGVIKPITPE

B1: M. jannaschii Adriase^ΔNTN (protein, listed as Methanosarcina mazei)
chain: MEQLRKQLIDFGKVMSIVNKIVKNGEIGVIKDGKLHLYDDYIAIDKIDPNPKVFKVVDVEGNFKDGDIVVIENGDMKIKGTNEKVTTKYIIIHKGSHHHHHH
modifications: Methanosarcina mazei Go1; Adriase NTN with C-terminal His-tag
For B1, the “complex formation with MtrA” value in [1] is reported as “no complex is formed”.

B2: M. mazei Adriase: Methanosarcina mazei Adriase (MM_2909), archaeal peptide recombinase, C-terminal His6-tag; Strep-, Myc-, HA-tagged versions used as pulldown bait (protein)
chain: TLVIAFIGKNGAVMAGDMREITFEGEKPDREKLEKELYSGSIVTDEEMQKKAEEFGVKITVADCKEKVSERNGVLVGEVSSAEGGVVKKRRLYASAGNFAIAELINTEMTLTSQGKGSNFIAFGNEFTKQVANKCFKDNWTKKSNLQDAVKILILCMETVARKTASVSKQFMIVQTASNADVLKVVEKDRNCGSHHHHHH
modifications: C-terminal His6-tag; M. mazei Adriase with C-terminal His-tag
notes: Methanosarcina mazei Adriase (MM_2909), archaeal peptide recombinase, C-terminal His6-tag; Strep-, Myc-, HA-tagged versions used as pulldown bait
On to B2, for which the “ligase activity (fluorescent ligation product)” value in data set [2] is given as “showed activity”. Further, the maximum rate was ~ 2.25 ligations per enzyme and second in data set [3] (0.001 molar equivalents enzyme, pH 7.0, Michaelis-Menten model); 0.92 ligations per enzyme and second in data set [6] (protein-protein ligation, 0.0025 molar equivalents enzyme, 50° C., pH 7.0). In addition, the “substrate concentration at half maximal reaction speed” value in [3] (each substrate, pH 7.0) is reported as ~ 9 μM. Further, the “substrates ligated (on a molar basis)” value in data set [4] (3.13 μM each substrate, enzyme:substrate ratio 1:400) is on record as ~ 50%. Further, the “yield compared to Sortase” value in [4] (100 μM substrates) was ~ 1.7 ×. Also, the “ligase activity / ligation rate compared to SrtA5*” value in data set [4] (100 μM substrates, Adriase 0.0025 molar equivalents, 50° C., SrtA5* 37° C.) was ~ 40 × and > 40 ×. The “ligase activity / ligation rate compared to SrtA” value in [4] (100 μM substrates, Adriase 0.0025 molar equivalents, 50° C., SrtA 37° C.) was ~ 4000 × and > 4000 ×. The ligation yield in data set [4] (compared to ~30% in the Sortase reactions) is ~ 50%. The product formation in data set [5] (enzyme:substrate 1:1000 (1×), 30 minutes) is reported as ~ 50%. Also, in data set [5] (prolonged incubation (90 min), 1000× increased Adriase concentration), the “amount of ligation product” value is recorded as ~ 50%. Moreover, the ligation rate coefficient in data set [6] (25 μM substrate concentration) stood at 0.74 ± 0.05 s⁻¹; in data set [6] (50 μM substrate concentration), 0.88 ± 0.07 s⁻¹; in [6] (100 μM substrate concentration), 0.90 ± 0.14 s⁻¹. For the same molecule, the “substrate concentration at half-maximum rate” value in data set [6] (each substrate, equimolar, protein-protein ligation, 50° C., pH 7.0) is 2.2 µM. Further, in data set [7], the “ligation of protein pairs” value is given as “efficiently ligates all three protein pairs”.

B3: M. jannaschii Adriase: Methanocaldococcus jannaschii Adriase (MJ_0548) with C-terminal His6-tag (protein)
chain: SLIICYYGKNGAVIGGDRRQIFFRGSEENRKILEEKLYSGEIKSEEELYKLAEKLNIKIIIEDDREKVRKISDSVVCGEVRSLGIDAKRRRVYATKGKCAIVDILNDTVTNQTIKEGFGIVVLGNRFLKKKAEEELKRTAKLFPMMPIQQIEDAIKEIFEKLKWHPTVSKEYDIYSVNKYEKNFEEVIKKDIESLFKYREQLRKQLIDFGKVMSIVNKIVKNGEIGVIKDGKLHLYDDYIAIDKIDPNPKVFKVVDVEGNFKDGDIVVIENGDMKIKGTNEKVTTKYIIIHKGSHHHHHH
modifications: C-terminal His6-tag; M. jannaschii Adriase with C-terminal His-tag
As for B3, the “rate of product generation compared to N-terminally modified Adriase” value in data set [8] is given as ~ 200 ×.

B4: M. jannaschii Adriase^S1A (protein)
chain: ALIICYYGKNGAVIGGDRRQIFFRGSEENRKILEEKLYSGEIKSEEELYKLAEKLNIKIIIEDDREKVRKISDSVVCGEVRSLGIDAKRRRVYATKGKCAIVDILNDTVTNQTIKEGFGIVVLGNRFLKKKAEEELKRTAKLFPMMPIQQIEDAIKEIFEKLKWHPTVSKEYDIYSVNKYEKNFEEVIKKDIESLFKYREQLRKQLIDFGKVMSIVNKIVKNGEIGVIKDGKLHLYDDYIAIDKIDPNPKVFKVVDVEGNFKDGDIVVIENGDMKIKGTNEKVTTKYIIIHKGSHHHHHH
modifications: C-terminal His-tag; M. jannaschii Adriase S1A mutant with C-terminal His-tag
As for B4, the “ligase activity (fluorescent ligation product)” value in data set [2] was “no ligation product is observed”. In data set [1], the “complex formation with MtrA” value is reported as “form a heterodimer”.

B5: 428-57: M. jannaschii Adriase without the insertion element that distinguishes Adriase from proteasome subunits, C-terminal His6 (protein)
chain: SLIICYYGKNGAVIGGDRRQIFFRGSGKIIIEDDREKVRKISDSVVCGEVRSLGIDAKRRRVYATKGKCAIVDILNDTVTNQTIKEGFGIVVLGNRFLKKKAEEELKRTAKLFPMMPIQQIEDAIKEIFEKLKWHPTVSKEYDIYSVNKYEKNFEEVIKKDIESLFKYREQLRKQLIDFGKVMSIVNKIVKNGEIGVIKDGKLHLYDDYIAIDKIDPNPKVFKVVDVEGNFKDGDIVVIENGDMKIKGTNEKVTTKYIIIHKGSHHHHHH
modifications: C-terminal His6; M. jannaschii Adriase 28-57, C-terminal His6
For B5, in data set [2], the “ligase activity (fluorescent ligation product)” value is listed as “abolishes ligase activity”.

B6: SrtA5* (protein, listed as Staphylococcus aureus)
chain: MQAKPQIPKDKSKVAGYIEIPDADIKEPVYPGPATREQLNRGVSFAEENESLDDQNISIAGHTFIDRPNYQFTNLKAAKKGSMVYFKVGNETRKYKMTSIRNVKPTAVEVLDEQKGKDKQLTLITCDDYNEETGVWETRKIFVATEVKLEHHHHHH
modifications: C-terminal His-tag; SrtA5* delta 1-59 with C-terminal His-tag
Regarding B6, the “ligase activity at low substrate concentrations” value in [9] is “only spurious ligase activity”. For the same molecule, in [10] (Chen (2011)), the “increased rates compared to the wild type enzyme” value is “up to 120 ×”. The Km (usually the substrate concentration at which the rate is half of its maximum) in data set [10] (Chen (2011), read-out: KM GGG) is 4700 µM; in data set [10] (Chen (2011), read-out: KM LPETG), 170 µM.

B7: Adriase^ΔOB S1A (protein)
chain: ALIICYYGKNGAVIGGDRRQIFFRGSEENRKILEEKLYSGEIKSEEELYKLAEKLNIKIIIEDDREKVRKISDSVVCGEVRSLGIDAKRRRVYATKGKCAIVDILNDTVTNQTIKEGFGIVVLGNRFLKKKAEEELKRTAKLFPMMPIQQIEDAIKEIFEKLKWHPTVSKEYDIYSVNKYEKNFEEVIKKDIESLFKYREQGSHHHHHH
With B7, the “complex formation with MtrA” value in [1] is on record as “decreased affinity”.

B8: Adriase^ΔOB: M. jannaschii Adriase without OB-like domain (Δ203-293), C-terminal His6-tag (protein)
chain: SLIICYYGKNGAVIGGDRRQIFFRGSEENRKILEEKLYSGEIKSEEELYKLAEKLNIKIIIEDDREKVRKISDSVVCGEVRSLGIDAKRRRVYATKGKCAIVDILNDTVTNQTIKEGFGIVVLGNRFLKKKAEEELKRTAKLFPMMPIQQIEDAIKEIFEKLKWHPTVSKEYDIYSVNKYEKNFEEVIKKDIESLFKYREQGSHHHHHH
modifications: C-terminal His6-tag; M. jannaschii Adriase without OB, with C-terminal His-tag
As for B8, the “ligase activity (fluorescent ligation product)” value in data set [2] was “still catalytically active”.

B9: SrtA: Staphylococcus aureus Sortase A without N-terminal membrane anchor (residues 1-59), N-terminal His6-tag (protein, listed as Staphylococcus aureus)
chain: MRGSHHHHHHGSQAKPQIPKDKSKVAGYIEIPDADIKEPVYPGPATPEQLNRGVSFAEENESLDDQNISIAGHTFIDRPNYQFTNLKAAKKGSMVYFKVGNETRKYKMTSIRDVKPTDVEVLDEQKGKDKQLTLITCDDYNEKTGVWEKRKIFVATEVK
modifications: N-terminal His6-tag; His6-SrtA 1-59
notes: Staphylococcus aureus Sortase A without N-terminal membrane anchor (residues 1-59), N-terminal His6-tag
In the case of B9, the “ligase activity at low substrate concentrations” value in data set [9] is reported as “only spurious ligase activity”. Also, the Michaelis constant (Km) is 196 µM in data set [10] (primary substrate used in excess, read-out: KM for the secondary substrate) and 7330 µM in data set [10] (secondary substrate used in excess, read-out: KM for the primary substrate). Besides, the “Kcat Ligation/Kcat Hydrolysis” value in data set [11] was “≈ 3.3”.
